Measured values from patent US20040038369A1, “Airway-specific trypsin-like enzymes and method of using the same” (priority 2000, published 2004).

Assays:
Assay type in all cases: cell-based
[1] = tested on: normal human airway epithelial cells; assay: Calcium influx in normal human airway epithelial cells; conditions: AST 2 units/mL; trypsin 10 to 100 units/mL; SFLLRNamide 100 μM
Experimental: The Ca^2+ influx due to the AST was examined with confluent normal epithelial cells adhered to three 10 cm dishes (purchased from BioWhittaker Corp.). The cells were peeled with a 10 mM EDTA/HEPES-Tyrode buffer solution for 10 minutes, recovered by a centrifugal treatment at 800 rpm at room temperature for 5 minutes, and then resuspended in 5 mL of HEPES-Tyrode buffer solution-Ca^2+ (−) pH 7.4. The recovered cells (about 1.2×10^6 cells) were suspended in 5 mL of HEPES-Tyrode buffer solution (1 μg/mL, containing Fura2-AM) to load the Fura2-AM to the cells at 37° C. for one hour. The cells were recovered by a centrifugal treatment at 800 rpm at room temperature for 5 minutes, twice washed with HEPES-Tyrode buffer solution-Ca^2+ (−) pH 7.4, and then resuspended in […] of HEPES-Tyrode buffer solution-Ca^2+ (−) pH 7.4. The cell suspension was mixed with 5 μL of 1M CaCl2 to give a final concentration of 1 mM CaCl2, and then incubated in a shaded state at room temperature for 5 minutes. The prepared Fura2-AM-loaded infected cells were dispensed into a 96 well plate in a volume of 100 μL/well, further subjected to the dispensation of HEPES-Tyrode buffer solution-Ca^2+ (+) pH 7.4 in a volume of 80 μL/well, and then assayed with Fluorescence Drug Screening System (Hamamatsu Photonics Co.). […]

PAR-4 = biological target: T1, PAR-4 (Homo sapiens, UniProt Q96RI0); assay: Calcium influx in PAR-4-expressing insect cells; conditions: AST 2 units/ml; trypsin, thrombin 0.1 to 10 units/mL
T1 construct: expressed in transfected cells; host or cells: Sf9 insect cells infected with recombinant baculovirus VL-PAR (pVL1393)
T1 sequence (Q96RI0 18-385): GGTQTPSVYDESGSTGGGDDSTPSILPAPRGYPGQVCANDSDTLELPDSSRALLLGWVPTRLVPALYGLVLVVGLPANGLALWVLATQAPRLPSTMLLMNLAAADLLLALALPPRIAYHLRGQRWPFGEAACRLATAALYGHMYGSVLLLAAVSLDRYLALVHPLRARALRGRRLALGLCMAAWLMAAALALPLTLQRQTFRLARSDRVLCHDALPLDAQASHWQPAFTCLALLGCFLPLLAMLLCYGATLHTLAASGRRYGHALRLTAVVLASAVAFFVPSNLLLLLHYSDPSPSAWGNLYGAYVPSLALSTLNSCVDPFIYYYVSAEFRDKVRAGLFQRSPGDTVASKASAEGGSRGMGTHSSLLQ
Experimental: (§1) The above-obtained recombinant baculovirus VL-PAR for expressing the PAR was used to infect 1.0×10^7 Sf9 cells sowed on a 75 cm^2 flask at an MOI=2, and was then left and stationally cultured at 27° C. for 40 hours. After the culture, the infected cells were recovered and then subjected to a calcium influx experiment to-confirm the function of the PAR.
(§2) The recovered infected cells (about 5×10^6 cells) were once washed with HEPES-Tyrode buffer solution-Ca^2+ (−) pH 7.4, and then suspended in 5 mL of HEPES-Tyrode buffer solution (containing Fura2-AM, 1 μg/mL) to load the Fura2-AM on the cells at 27° C. for 30 minutes. The suspension was centrifuged at 800 rpm at room temperature for 5 minutes to recover the cells. The cells were twice washed with HEPES-Tyrode buffer solution-Ca^2+ (−) pH 7.4 and then resuspended in 5 mL of HEPES-Tyrode buffer solution-Ca^2+ (−) pH 7.4. The cell suspension was mixed with 5 μL of 1M CaCl2 to give a final concentration of 1 mM CaCl2, and then incubated in a shaded state at room temperature for 5 minutes. The prepared Fura2-AM-loaded infected cells were dispensed into a 96 well plate in a volume of 100 μL/well, further subjected to the dispensation of HEPES-Tyrode buffer solution-C^2+ (+) pH 7.4 in a volume of 80 μL/well, and then assayed with a Fluorescence Drug Screening System (made by Hamamatsu Photonics Co.). […]

PAR-2 = biological target: T2, PAR-2 (Homo sapiens, UniProt P55085); assay: Calcium influx in PAR-2-expressing insect cells; conditions: AST 2 units/mL; trypsin, thrombin 0.1 to 10 units/mL; SFLLRNamide, SLIGRL 10 to 100 μM
T2 construct: expressed in transfected cells; host or cells: Sf9 insect cells infected with recombinant baculovirus VL-PAR (pVL1393)
T2 sequence (P55085 26-397): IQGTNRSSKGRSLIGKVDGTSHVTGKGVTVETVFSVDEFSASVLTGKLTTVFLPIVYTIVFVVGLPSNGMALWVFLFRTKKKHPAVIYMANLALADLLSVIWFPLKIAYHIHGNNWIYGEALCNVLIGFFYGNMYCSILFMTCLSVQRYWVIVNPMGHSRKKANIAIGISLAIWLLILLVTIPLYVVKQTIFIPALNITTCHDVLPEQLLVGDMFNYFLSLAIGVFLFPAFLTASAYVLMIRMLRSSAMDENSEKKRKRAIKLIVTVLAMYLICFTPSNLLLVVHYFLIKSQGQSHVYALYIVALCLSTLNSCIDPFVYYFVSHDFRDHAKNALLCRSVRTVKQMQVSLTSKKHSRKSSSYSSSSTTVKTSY
Experimental: as §1, §2

PAR-1 = biological target: T3, PAR-1 (Homo sapiens, UniProt P25116); assay: Calcium influx in PAR-1-expressing insect cells; conditions: AST 2 units/mL; trypsin, thrombin 0.1 to 10 units/mL; SFLLRNamide 10 to 100 μM
T3 construct: expressed in transfected cells; host or cells: Sf9 insect cells infected with recombinant baculovirus VL-PAR (pVL1393)
T3 sequence (P25116 22-425): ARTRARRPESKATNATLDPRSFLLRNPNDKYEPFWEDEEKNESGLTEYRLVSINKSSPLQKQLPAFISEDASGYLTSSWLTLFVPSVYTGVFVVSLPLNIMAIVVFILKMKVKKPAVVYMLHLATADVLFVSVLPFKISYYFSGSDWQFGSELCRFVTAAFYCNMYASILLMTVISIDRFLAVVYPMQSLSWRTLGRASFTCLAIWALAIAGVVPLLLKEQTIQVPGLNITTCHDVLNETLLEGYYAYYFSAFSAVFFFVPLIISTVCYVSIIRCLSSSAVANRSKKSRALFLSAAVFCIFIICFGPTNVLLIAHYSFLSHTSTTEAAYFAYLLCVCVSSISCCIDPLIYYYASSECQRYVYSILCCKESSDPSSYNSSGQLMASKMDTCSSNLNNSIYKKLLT
Experimental: The recovered infected cells (about 5×10^6 cells) were once washed with HEPES-Tyrode buffer solution-Ca^2+ (−) pH 7.4, and then suspended in 5 mL of HEPES-Tyrode buffer solution (containing Fura2-AM, 1 μg/mL) to load the Fura2-AM on the cells at 27° C. for 30 minutes. The suspension was centrifuged at 800 rpm at room temperature for 5 minutes to recover the cells. The cells were twice washed with HEPES-Tyrode buffer solution-Ca^2+ (−) pH 7.4 and then resuspended in 5 mL of HEPES-Tyrode buffer solution-Ca^2+ (−) pH 7.4. The cell suspension was mixed with 5 μL of 1M CaCl2 to give a final concentration of 1 mM CaCl2, and then incubated in a shaded state at room temperature for 5 minutes. The prepared Fura2-AM-loaded infected cells were dispensed into a 96 well plate in a volume of 100 μL/well, further subjected to the dispensation of HEPES-Tyrode buffer solution-C^2+ (+) pH 7.4 in a volume of 80 μL/well, and then assayed with a Fluorescence Drug Screening System (made by Hamamatsu Photonics Co.). Namely, [intensity of 500 nm fluorescent light due to 340 nm exciting light]/[intensity of 500 nm fluorescent light due to 380 nm exciting light] (reflecting the concentration of calcium in the cells) was assayed.

BEAS-2B = assay: Calcium influx in airway epithelial cell strain BEAS-2B; conditions: AST 2 units/mL; trypsin 10 to 100 units/mL; SFLLRNamide 100 μM
Experimental: The Ca^2+ influx due to the AST was examined with respect to an airway epithelial cell strain BEAS-2B. The confluent cells adhered to six 10 cm dishes were used. The cells were peeled with a 10 mM EDTA/HEPES-Tyrode buffer solution for 10 minutes, recovered by a centrifugal treatment at 1,500 rpm at room temperature for 5 minutes, and then resuspended in 10 mL of HEPES-Tyrode buffer solution-Ca^2+ (−) pH 7.4. The recovered cells (about 1.1×10^7 cells) were suspended in 11 mL of HEPES-Tyrode buffer solution (1 μg/mL, containing Fura2-AM) to load the Fura2-AM at 37° C. for 30 minutes. The cells were recovered by a centrifugal treatment at 1,500 rpm at room temperature for 5 minutes, twice washed with HEPES-Tyrode buffer solution-Ca^2+ (−) pH 7.4, and then resuspended in 11 mL of HEPES-Tyrode buffer solution-Ca^2+ (−) pH 7.4. The cell suspension was mixed with […] of 1M CaCl2 to give a final concentration of 1 mM CaCl2, and then incubated in a shaded state at room temperature for 5 minutes. The prepared Fura2-AM-loaded infected cells were dispensed into a 96 well plate in a volume of 100 μL/well, further subjected to the dispensation of HEPES-Tyrode buffer solution-Ca^2+ (+) pH 7.4 in a volume of 80 μL/well, and then assayed with Fluorescence Drug Screening System (Hamamatsu Photonics Co.). […]

Measured: Ca2+ influx

B1: trypsin: trypsin originated from bovine pancreas (protein)
chain: IVGGYTCGANTVPYQVSLNSGYHFCGGSLINSQWVVSAAHCYKSGIQVRLGEDNINVVEGNEQFISASKSIVHPSYNSNTLNNDIMLIKLKSAASLNSRVASISLPTSCASAGTQCLISGWGNTKSSGTSYPDVLKCLKAPILSDSSCKSAYPGQITSNMFCAGYLEGGKDSCQGDSGGPVVCSGKLQGIVSWGSGCAQKNKPGVYTKVCNYVSWIKQTIASN
observed: [1] | PAR-4 | PAR-2 | PAR-1 | BEAS-2B
